B1: wildtype <IGF-1R> antibody (antibody, V domains shown)
VH: QVELVESGGGVVQPGRSQRLSCAASGFTFSSYGMHWVRQAPGKGLEWVAIIWFDGSSTYYADSVRGRFTISRDNSKNTLYLQMNSLRAEDTAVYFCARELGRRYFDLWGRGTLVSVSS
VL: EIVLTQSPATLSLSPGERATLSCRASQSVSSYLAWYQQKPGQAPRLLIYDASKRATGIPARFSGSGSGTDFTLTISSLEPEDFAVYYCQQRSKWPPWTFGQGTKVESKR
notes: Human IgG1/kappa antibody described in WO 2005/005635; also called <IGF-1R> wildtype antibody; <IGF-1R> control antibody
B2: monospecific, bivalent <ANGPT2> wildtype antibody (antibody, V domains shown)
VH: EVQLVQSGGGVVQPGRSLRLSCAASGFTFSSYGMHWVRQAPGKGLEWVSYISSSGSTIYYADSVKGRFTISRDNAKNSLYLQMNSLRAEDTAVYYCARDLLDYDILTGYGYWGQGTLVTVSS
VL: not shown
notes: Human IgG1/kappa antibody described in WO 2006/045049; also called wildtype <ANGPT2> antibody; <Ang-2> control antibody

Legend:
[1] = target: T1, human ANGPT2 (R&D Systems) (human, UniProt O15123 68-496, limits assumed); test: cellular FACS IGF-1R-ANGPT2 bridging assay on I24 cells; antibody on cells, then ANGPT2, detected with biotinylated anti-ANGPT2 and Streptavidin-PE
T1 construct: Bought reagent; also called hANGPT2; Angiopoietin-2
T1 sequence (looked up): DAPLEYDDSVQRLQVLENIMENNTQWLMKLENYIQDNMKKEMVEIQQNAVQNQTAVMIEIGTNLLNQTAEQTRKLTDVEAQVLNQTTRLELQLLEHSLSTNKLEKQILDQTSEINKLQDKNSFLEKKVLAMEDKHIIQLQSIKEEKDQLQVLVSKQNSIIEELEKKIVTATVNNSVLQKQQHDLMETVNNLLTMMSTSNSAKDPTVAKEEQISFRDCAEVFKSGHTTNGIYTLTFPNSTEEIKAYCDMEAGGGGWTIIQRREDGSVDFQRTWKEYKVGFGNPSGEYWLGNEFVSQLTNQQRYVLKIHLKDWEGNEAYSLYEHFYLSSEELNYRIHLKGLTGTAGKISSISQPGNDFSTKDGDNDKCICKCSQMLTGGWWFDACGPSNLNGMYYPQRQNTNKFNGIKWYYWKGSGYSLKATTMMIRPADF
Experimental: (§1) The assay principle is depicted in FIG. 10.
(§2) Briefly, 5×10E5 I24 cells per FACS tube were incubated with total purified antibody mix and incubated on ice for 1 h (titration 160 μg/ml mix). The respective purified antibodies wildtype <IGF-1R> and <ANGPT2> were applied to the I24 cells as controls. Unbound antibody was washed away with 4 ml ice cold PBS (Gibco)+2% FCS (Gibco), cells were centrifuged (5 min at 400 g) and bound bispecific antibody was detected with 50 μl 2 μg/mL human ANGPT2 (R&D Systems) for 1 h on ice. Subsequently, unbound ANGPT2 was washed away once or twice with 4 ml ice cold PBS (Gibco)+2% FCS (Gibco), cells were centrifuged (5 min at 400 g) and bound ANGPT2 was detected with 50 μl 5 μg/mL <ANGPT2>mIgG1-Biotin antibody (BAM0981, R&D Systems) for 45 min on ice; alternatively, cells were incubated with 50 μl 5 μg/mL mIgG1-Biotin-Isotype control (R&D Systems). Unbound detection antibody was washed away with 4 ml ice cold PBS (Gibco)+2% FCS (Gibco), cells were centrifuged (5 min at 400 g) and bound detection antibody was detected with 50 μl 1:400 Streptavidin-PE conjugate (Invitrogen/Zymed) for 45 min on ice protected from light. Unbound Streptavidin-PE conjugate was washed away with 4 ml ice cold PBS+2% FCS. […]

[2] = target: T2, recombinant human IGF-1R on I24 cells (NIH3T3 cells expressing recombinant human IGF-1R) (human, UniProt P08069 31-1367); test: cellular FACS IGF-1R-ANGPT2 bridging assay on I24 cells; antibody on cells, washed, then ANGPT2, detected with biotinylated anti-ANGPT2 and Streptavidin-PE
T2 construct: whole, on cells; also called IGF-1R in I24 cells
Experimental: as §1, §2

Row | Binder | binding result [1] | binding result [2]
1 | B1 | no binding (tested: 2 µg/mL human ANGPT2) | –
2 | B2 | – | no binding
